What was measured:
PapD [1] = molecular target: T1, PapD (Escherichia coli, UniProt P15319); experiment: Soluble inhibition ELISA: peptide inhibition of PapD binding to G1'-19'WT-coated wells; design: made in house; species or system E. coli; conditions: peptide in solution
T1 sequence (P15319 22-239): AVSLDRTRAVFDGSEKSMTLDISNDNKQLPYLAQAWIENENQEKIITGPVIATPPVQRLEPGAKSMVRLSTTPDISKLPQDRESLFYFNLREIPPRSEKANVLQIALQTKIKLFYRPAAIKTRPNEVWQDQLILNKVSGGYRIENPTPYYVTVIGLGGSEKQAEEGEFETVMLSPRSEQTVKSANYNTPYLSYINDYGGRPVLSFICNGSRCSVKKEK
Description: In addition, the ability of water-soluble peptides to inhibit PapD binding to G1'-19'WT-coated wells in a soluble inhibition ELISA were tested, since peptide conformations may have been affected by binding to the plastic microtiter plates:
Microtiter wells were coated overnight at 4° C. with 50 μl of 2,5 pmol/50 μl of the G1'-19'WT peptide. The wells were washed with PBS and blocked with 3% bovine serum albumin (BSA). A 25-fold molar excess of each test peptide was pre-incubated with 100 pmoles PapD for 30 min. and the PapD-peptide solution was then added to the coated wells and incubated at 25° C. for 45 min in the presence of 3% BSA/PBS. The subsequent primary antibody, secondary antibody and developing steps are described above. The ability of the peptides to inhibit binding of PapD to the G1'-19'WT peptide was calculated by dividing the amount of PapD binding in the presence of peptide with the amount of PapD binding in the presence of water. 0% inhibition includes values where binding was greater than that of PapD pre-incubated with H2 O.
The % inhibition represents the percentage of PapD binding in the presence of the peptide compared to in the presence of water and are the average of two experiments performed duplicate: […]

PapD [2] = molecular target: T1, PapD; experiment: ELISA: peptide inhibition of PapD binding to MBP-G1'-140' fusion protein; design: species or system E. coli; conditions: PapD preincubated with peptide at 1:25 ratio
Description: The ability of the peptides to inhibit the binding of PapD to the MBP-G1'-140' fusion protein was then investigated using the following ELISA test:
Stock solutions of MBP-G1'-140' proteins in PBS were diluted to 0.1 μM with PBS. The wells of microtiter plates were coated with 50 μl of the protein solutions overnight at 4° C. The wells were washed with PBS, and blocked with 200 μl of 3% bovine serum albumin (BSA) in PBS for 2 hours at 25° C. The plates were washed vigorously three times with PBS and incubated with 50 μl of 1-5 μM PapD proteins in 3% BSA-PBS for 45 minutes at 25° C. The PapD was preincubated with each of the peptides at a 1:25 ratio for 30 min before being added to the wells. After three washings with PBS, the wells were incubated with a 1:500 dilution of rabbit anti-PapD antiserum in 3% BSA-PBS for 45 minutes at 25° C. After three washings with PBS, the wells were incubated with a 1:1000 dilution of goat antiserum to rabbit IgG coupled to alkaline phosphatase in 3% BSA-PBS for 45 minutes at 25° C. After three washings with PBS and three washings with developing buffer (10 mM diethanolamine, 0.5 mM MgCl2), 50 μl filtered 1 mg/ml p-nitrophenyl phosphate in developing buffer was added, the reaction was incubated for 1 hour or longer if necessary in the dark at 25° C., and the absorbance at 405 nm was read.

NH2--KPGELSGSMTMVLSFP--COOH (H-KPGELSGSMTMVLSFP-OH) [G1'-16'WT]
inhibition of PapD binding to immobilized G1'-19'WT by soluble peptide (PapD [1]): inhibited binding
inhibition of binding of PapD to MBP-G1'-140' fusion protein (PapD [2]): significantly more potent

Reference: patent US6001823A, “Treatment or prophylaxis of diseases caused by pilus-forming bacteria” (priority 1995, dated 1999)
